Measured values as given in patent US20160272683A1 (Novo Nordisk, published 2016).
Numbered stars: 1 amine (or outer) side, 2 acyl side, 3 side chain; on linkers, the order of the positions; unused ones are H or OH. * marks the point of attachment. C20 diacid = O=C(O)CCCCCCCCCCCCCCCCCCC(=O)*; C18 diacid = O=C(O)CCCCCCCCCCCCCCCCC(=O)*; γGlu = O=C(O)[C@H](CCC(=O)[*:2])N[*:1]

T1: human calcitonin receptor (human, UniProt P30988 25-474)
T1 sequence (looked up): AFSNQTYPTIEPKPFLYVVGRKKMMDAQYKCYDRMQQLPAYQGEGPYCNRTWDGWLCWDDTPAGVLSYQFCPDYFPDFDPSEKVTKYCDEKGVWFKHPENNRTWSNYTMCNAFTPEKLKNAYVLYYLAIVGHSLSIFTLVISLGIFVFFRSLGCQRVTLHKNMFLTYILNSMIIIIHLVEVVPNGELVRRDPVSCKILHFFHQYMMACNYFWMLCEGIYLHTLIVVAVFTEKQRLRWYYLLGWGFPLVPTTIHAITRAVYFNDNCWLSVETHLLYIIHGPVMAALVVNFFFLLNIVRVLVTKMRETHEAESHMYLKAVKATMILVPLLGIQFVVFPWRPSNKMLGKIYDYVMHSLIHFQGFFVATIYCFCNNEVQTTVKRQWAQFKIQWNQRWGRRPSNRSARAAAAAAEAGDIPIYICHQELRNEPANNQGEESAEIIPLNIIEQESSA

T2: human amylin 3(a) receptor (human calcitonin receptor co-expressed with RAMP-3) (human, UniProt P30988 25-474; O60896 24-148, limits assumed)
T2 sequence (looked up) 1: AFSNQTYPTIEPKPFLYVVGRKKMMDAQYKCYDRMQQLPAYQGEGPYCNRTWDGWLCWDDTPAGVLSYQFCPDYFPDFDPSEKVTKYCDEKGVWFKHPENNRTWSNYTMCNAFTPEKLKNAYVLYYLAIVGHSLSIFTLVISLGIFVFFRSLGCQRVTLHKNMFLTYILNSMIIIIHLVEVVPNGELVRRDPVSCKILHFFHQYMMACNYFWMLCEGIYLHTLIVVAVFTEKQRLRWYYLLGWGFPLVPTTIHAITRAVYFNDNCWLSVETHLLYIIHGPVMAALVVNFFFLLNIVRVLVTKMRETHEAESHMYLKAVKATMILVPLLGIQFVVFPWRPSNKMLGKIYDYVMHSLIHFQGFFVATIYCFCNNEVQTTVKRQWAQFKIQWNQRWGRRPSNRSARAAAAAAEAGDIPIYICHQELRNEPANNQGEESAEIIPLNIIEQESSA
T2 sequence (looked up) 2: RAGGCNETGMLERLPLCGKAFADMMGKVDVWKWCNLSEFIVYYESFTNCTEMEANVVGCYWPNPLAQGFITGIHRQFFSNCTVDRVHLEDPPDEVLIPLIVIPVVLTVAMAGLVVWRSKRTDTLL


Legend:
[1] = target: T1, human calcitonin receptor; test: cell-based or functional assay
[2] = target: T2, human amylin 3(a) receptor (human …); test: cell-based or functional assay

| Binder | hCTR funct. EC50 (pM) [1] | hAmylin-R funct. EC50 (pM) [2] |
| --- | --- | --- |
| {C20 diacid-γGlu}-ELSGLSTLVLGRLSQELHELQTYPRTGTGSGTY-NH2 (SMILES CC(C)C[C@H](NC(=O)CNC(=O)[C@H](CO)NC(=O)[C@H](CC(C)C)NC(=O)[C@H](CCC(=O)O)NC(=O)CC[C@H](NC(=O)CCCCCCCCCCCCCCCCCCC(=O)O)C(=O)O)C(=O)N[C@@H](CO)C(=O)N[C@H](C(=O)N[C@@H](CC(C)C)C(=O)N[C@H](C(=O)N[C@@H](CC(C)C)C(=O)NCC(=O)N[C@@H](CCCNC(=N)N)C(=O)N[C@@H](CC(C)C)C(=O)N[C@@H](CO)C(=O)N[C@@H](CCC(N)=O)C(=O)N[C@@H](CCC(=O)O)C(=O)N[C@@H](CC(C)C)C(=O)N[C@@H](Cc1c[nH]cn1)C(=O)N[C@@H](CCC(=O)O)C(=O)N[C@@H](CC(C)C)C(=O)N[C@@H](CCC(N)=O)C(=O)N[C@H](C(=O)N[C@@H](Cc1ccc(O)cc1)C(=O)N1CCC[C@H]1C(=O)N[C@@H](CCCNC(=N)N)C(=O)N[C@H](C(=O)NCC(=O)N[C@H](C(=O)NCC(=O)N[C@@H](CO)C(=O)NCC(=O)N[C@H](C(=O)N[C@@H](Cc1ccc(O)cc1)C(N)=O)[C@@H](C)O)[C@@H](C)O)[C@@H](C)O)[C@@H](C)O)C(C)C)[C@@H](C)O) [[N-terminal(C20 diacid-gGlu), 2L, 4G, 8L, 9V, 15Q, 21Q, 23Y, 27G, 30S, 31G, 32T, 33Y]mimylin] | 25 pM | 25 pM |
| {C20 diacid-γGlu}-ASGLSTATLGRLSQELHELQTYPPTETGSGTY-NH2 (SMILES CC(C)C[C@H](NC(=O)CNC(=O)[C@H](CO)NC(=O)[C@H](C)NC(=O)CC[C@H](NC(=O)CCCCCCCCCCCCCCCCCCC(=O)O)C(=O)O)C(=O)N[C@@H](CO)C(=O)N[C@H](C(=O)N[C@@H](C)C(=O)N[C@H](C(=O)N[C@@H](CC(C)C)C(=O)NCC(=O)N[C@@H](CCCNC(=N)N)C(=O)N[C@@H](CC(C)C)C(=O)N[C@@H](CO)C(=O)N[C@@H](CCC(N)=O)C(=O)N[C@@H](CCC(=O)O)C(=O)N[C@@H](CC(C)C)C(=O)N[C@@H](Cc1c[nH]cn1)C(=O)N[C@@H](CCC(=O)O)C(=O)N[C@@H](CC(C)C)C(=O)N[C@@H](CCC(N)=O)C(=O)N[C@H](C(=O)N[C@@H](Cc1ccc(O)cc1)C(=O)N1CCC[C@H]1C(=O)N1CCC[C@H]1C(=O)N[C@H](C(=O)N[C@@H](CCC(=O)O)C(=O)N[C@H](C(=O)NCC(=O)N[C@@H](CO)C(=O)NCC(=O)N[C@H](C(=O)N[C@@H](Cc1ccc(O)cc1)C(N)=O)[C@@H](C)O)[C@@H](C)O)[C@@H](C)O)[C@@H](C)O)[C@@H](C)O)[C@@H](C)O) [[N-terminal(C20 diacid-gGlu), des1, 4G, 9T, 15Q, 21Q, 23Y, 25P, 30S, 31G, 32T, 33Y]mimylin] | 19 pM | 23 pM |
| {C18 diacid}-EASELSTAALGRLSAELHEIATLPRTETGPESP-NH2 (SMILES CC[C@H](C)[C@H](NC(=O)[C@H](CCC(=O)O)NC(=O)[C@H](Cc1c[nH]cn1)NC(=O)[C@H](CC(C)C)NC(=O)[C@H](CCC(=O)O)NC(=O)[C@H](C)NC(=O)[C@H](CO)NC(=O)[C@H](CC(C)C)NC(=O)[C@H](CCCNC(=N)N)NC(=O)CNC(=O)[C@H](CC(C)C)NC(=O)[C@H](C)NC(=O)[C@H](C)NC(=O)[C@@H](NC(=O)[C@H](CO)NC(=O)[C@H](CC(C)C)NC(=O)[C@H](CCC(=O)O)NC(=O)[C@H](CO)NC(=O)[C@H](C)NC(=O)[C@H](CCC(=O)O)NC(=O)CCCCCCCCCCCCCCCCC(=O)O)[C@@H](C)O)C(=O)N[C@@H](C)C(=O)N[C@H](C(=O)N[C@@H](CC(C)C)C(=O)N1CCC[C@H]1C(=O)N[C@@H](CCCNC(=N)N)C(=O)N[C@H](C(=O)N[C@@H](CCC(=O)O)C(=O)N[C@H](C(=O)NCC(=O)N1CCC[C@H]1C(=O)N[C@@H](CCC(=O)O)C(=O)N[C@@H](CO)C(=O)N1CCC[C@H]1C(N)=O)[C@@H](C)O)[C@@H](C)O)[C@@H](C)O) [[N-terminal(C18 diacid), 20I]mimylin] | 5 pM | 6 pM |
| {C20 diacid-γGlu}-LSGLSTAVLGRLSQELHELQTYPRTETGSQTY-NH2 (SMILES CC(C)C[C@H](NC(=O)CC[C@H](NC(=O)CCCCCCCCCCCCCCCCCCC(=O)O)C(=O)O)C(=O)N[C@@H](CO)C(=O)NCC(=O)N[C@@H](CC(C)C)C(=O)N[C@@H](CO)C(=O)N[C@H](C(=O)N[C@@H](C)C(=O)N[C@H](C(=O)N[C@@H](CC(C)C)C(=O)NCC(=O)N[C@@H](CCCNC(=N)N)C(=O)N[C@@H](CC(C)C)C(=O)N[C@@H](CO)C(=O)N[C@@H](CCC(N)=O)C(=O)N[C@@H](CCC(=O)O)C(=O)N[C@@H](CC(C)C)C(=O)N[C@@H](Cc1c[nH]cn1)C(=O)N[C@@H](CCC(=O)O)C(=O)N[C@@H](CC(C)C)C(=O)N[C@@H](CCC(N)=O)C(=O)N[C@H](C(=O)N[C@@H](Cc1ccc(O)cc1)C(=O)N1CCC[C@H]1C(=O)N[C@@H](CCCNC(=N)N)C(=O)N[C@H](C(=O)N[C@@H](CCC(=O)O)C(=O)N[C@H](C(=O)NCC(=O)N[C@@H](CO)C(=O)N[C@@H](CCC(N)=O)C(=O)N[C@H](C(=O)N[C@@H](Cc1ccc(O)cc1)C(N)=O)[C@@H](C)O)[C@@H](C)O)[C@@H](C)O)[C@@H](C)O)C(C)C)[C@@H](C)O) [[N-terminal(C20 diacid-gGlu), des1, 2L, 4G, 9V, 15Q, 21Q, 23Y, 30S, 31Q, 32T, 33Y]mimylin] | 31 pM | 31 pM |
| {C20 diacid-γGlu}-ASGLSTATLGRLSQELHELQTYPRTETGSGTY-NH2 [[N-terminal(C20 diacid-gGlu), des1, 4G, 9T, 15Q, 21Q, 23Y, 30S, 31G, 32T, 33Y]mimylin] | 34 pM | 40 pM |

Continued, values first:

| hCTR funct. EC50 (pM) [1] | hAmylin-R funct. EC50 (pM) [2] | Binder |
| --- | --- | --- |
| 40 pM | 52 pM | {C20 diacid-γGlu}-ASGLSTLVLGRLSQELHELQTYPRTETGSQTY-NH2 (SMILES CC(C)C[C@H](NC(=O)CNC(=O)[C@H](CO)NC(=O)[C@H](C)NC(=O)CC[C@H](NC(=O)CCCCCCCCCCCCCCCCCCC(=O)O)C(=O)O)C(=O)N[C@@H](CO)C(=O)N[C@H](C(=O)N[C@@H](CC(C)C)C(=O)N[C@H](C(=O)N[C@@H](CC(C)C)C(=O)NCC(=O)N[C@@H](CCCNC(=N)N)C(=O)N[C@@H](CC(C)C)C(=O)N[C@@H](CO)C(=O)N[C@@H](CCC(N)=O)C(=O)N[C@@H](CCC(=O)O)C(=O)N[C@@H](CC(C)C)C(=O)N[C@@H](Cc1c[nH]cn1)C(=O)N[C@@H](CCC(=O)O)C(=O)N[C@@H](CC(C)C)C(=O)N[C@@H](CCC(N)=O)C(=O)N[C@H](C(=O)N[C@@H](Cc1ccc(O)cc1)C(=O)N1CCC[C@H]1C(=O)N[C@@H](CCCNC(=N)N)C(=O)N[C@H](C(=O)N[C@@H](CCC(=O)O)C(=O)N[C@H](C(=O)NCC(=O)N[C@@H](CO)C(=O)N[C@@H](CCC(N)=O)C(=O)N[C@H](C(=O)N[C@@H](Cc1ccc(O)cc1)C(N)=O)[C@@H](C)O)[C@@H](C)O)[C@@H](C)O)[C@@H](C)O)C(C)C)[C@@H](C)O) [[N-terminal(C20 diacid-gGlu), des1, 4G, 8L, 9V, 15Q, 21Q, 23Y, 30S, 31Q, 32T, 33Y]mimylin] |
| 57 pM | 70 pM | {C20 diacid-γGlu}-ASGLSTAVLGRLSQELHELQTYPPTETGSQTY-NH2 (SMILES CC(C)C[C@H](NC(=O)CNC(=O)[C@H](CO)NC(=O)[C@H](C)NC(=O)CC[C@H](NC(=O)CCCCCCCCCCCCCCCCCCC(=O)O)C(=O)O)C(=O)N[C@@H](CO)C(=O)N[C@H](C(=O)N[C@@H](C)C(=O)N[C@H](C(=O)N[C@@H](CC(C)C)C(=O)NCC(=O)N[C@@H](CCCNC(=N)N)C(=O)N[C@@H](CC(C)C)C(=O)N[C@@H](CO)C(=O)N[C@@H](CCC(N)=O)C(=O)N[C@@H](CCC(=O)O)C(=O)N[C@@H](CC(C)C)C(=O)N[C@@H](Cc1c[nH]cn1)C(=O)N[C@@H](CCC(=O)O)C(=O)N[C@@H](CC(C)C)C(=O)N[C@@H](CCC(N)=O)C(=O)N[C@H](C(=O)N[C@@H](Cc1ccc(O)cc1)C(=O)N1CCC[C@H]1C(=O)N1CCC[C@H]1C(=O)N[C@H](C(=O)N[C@@H](CCC(=O)O)C(=O)N[C@H](C(=O)NCC(=O)N[C@@H](CO)C(=O)N[C@@H](CCC(N)=O)C(=O)N[C@H](C(=O)N[C@@H](Cc1ccc(O)cc1)C(N)=O)[C@@H](C)O)[C@@H](C)O)[C@@H](C)O)[C@@H](C)O)C(C)C)[C@@H](C)O) [[N-terminal(C20 diacid-gGlu), des1, 4G, 9V, 15Q, 21Q, 23Y, 25P, 30S, 31Q, 32T, 33Y]mimylin] |
| 28 pM | 24 pM | {C20 diacid-γGlu}-LSGLSTAVLGRLSAELHELSTYPRTETGSGTY-NH2 (SMILES CC(C)C[C@H](NC(=O)CC[C@H](NC(=O)CCCCCCCCCCCCCCCCCCC(=O)O)C(=O)O)C(=O)N[C@@H](CO)C(=O)NCC(=O)N[C@@H](CC(C)C)C(=O)N[C@@H](CO)C(=O)N[C@H](C(=O)N[C@@H](C)C(=O)N[C@H](C(=O)N[C@@H](CC(C)C)C(=O)NCC(=O)N[C@@H](CCCNC(=N)N)C(=O)N[C@@H](CC(C)C)C(=O)N[C@@H](CO)C(=O)N[C@@H](C)C(=O)N[C@@H](CCC(=O)O)C(=O)N[C@@H](CC(C)C)C(=O)N[C@@H](Cc1c[nH]cn1)C(=O)N[C@@H](CCC(=O)O)C(=O)N[C@@H](CC(C)C)C(=O)N[C@@H](CO)C(=O)N[C@H](C(=O)N[C@@H](Cc1ccc(O)cc1)C(=O)N1CCC[C@H]1C(=O)N[C@@H](CCCNC(=N)N)C(=O)N[C@H](C(=O)N[C@@H](CCC(=O)O)C(=O)N[C@H](C(=O)NCC(=O)N[C@@H](CO)C(=O)NCC(=O)N[C@H](C(=O)N[C@@H](Cc1ccc(O)cc1)C(N)=O)[C@@H](C)O)[C@@H](C)O)[C@@H](C)O)[C@@H](C)O)C(C)C)[C@@H](C)O) [[N-terminal(C20 diacid-gGlu), des1, 2L, 4G, 9V, 21S, 23Y, 30S, 31G, 32T, 33Y]mimylin] |
